Measurements reported in patent US20200087347 (published 2020).
Read-outs that look alike come from different tables or passages of the source. Side-chain parts run from the residue outwards. [ ]: non-standard residue; d: D form. N‑Me‑Lys‑pentyne = N-methyl-lysine carrying a pentyne (alkyne) group; Pro‑4‑NH‑hexyne = not defined here; dNMeF = CN[C@H](Cc1ccccc1)C(=O)O; NMeK = CN[C@@H](CCCCN)C(=O)O; Ahx = NCCCCCC(=O)O; BDPFL = dye

What was measured:
Assay in all cases: competition
integrin αvβ8 [1] = target: T1, integrin αvβ8 (human, UniProt P06756)
T1 chain 1: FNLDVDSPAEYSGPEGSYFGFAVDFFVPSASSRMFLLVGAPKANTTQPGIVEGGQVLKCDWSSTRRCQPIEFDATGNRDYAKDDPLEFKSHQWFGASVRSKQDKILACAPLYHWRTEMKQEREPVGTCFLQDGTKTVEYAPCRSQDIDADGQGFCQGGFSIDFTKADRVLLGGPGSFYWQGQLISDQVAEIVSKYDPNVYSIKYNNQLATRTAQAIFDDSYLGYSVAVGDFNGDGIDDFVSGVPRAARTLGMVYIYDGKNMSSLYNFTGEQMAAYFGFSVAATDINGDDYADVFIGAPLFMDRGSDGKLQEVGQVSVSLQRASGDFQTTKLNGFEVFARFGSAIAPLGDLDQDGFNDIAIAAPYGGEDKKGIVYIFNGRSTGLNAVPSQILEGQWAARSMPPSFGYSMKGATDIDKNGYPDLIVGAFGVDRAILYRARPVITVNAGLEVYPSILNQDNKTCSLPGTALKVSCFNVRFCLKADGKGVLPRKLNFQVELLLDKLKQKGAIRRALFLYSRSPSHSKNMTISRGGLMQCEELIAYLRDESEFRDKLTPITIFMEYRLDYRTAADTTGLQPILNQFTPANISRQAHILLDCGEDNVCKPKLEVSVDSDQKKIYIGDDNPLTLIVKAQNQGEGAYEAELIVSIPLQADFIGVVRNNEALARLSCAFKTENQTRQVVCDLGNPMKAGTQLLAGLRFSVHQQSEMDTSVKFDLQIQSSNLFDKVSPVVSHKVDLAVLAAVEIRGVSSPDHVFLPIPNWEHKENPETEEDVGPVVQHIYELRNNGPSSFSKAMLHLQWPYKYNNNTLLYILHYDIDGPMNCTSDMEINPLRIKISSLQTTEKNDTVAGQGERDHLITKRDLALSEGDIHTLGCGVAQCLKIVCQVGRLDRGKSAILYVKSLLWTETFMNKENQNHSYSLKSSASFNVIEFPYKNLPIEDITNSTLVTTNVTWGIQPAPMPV
T1 chain 2: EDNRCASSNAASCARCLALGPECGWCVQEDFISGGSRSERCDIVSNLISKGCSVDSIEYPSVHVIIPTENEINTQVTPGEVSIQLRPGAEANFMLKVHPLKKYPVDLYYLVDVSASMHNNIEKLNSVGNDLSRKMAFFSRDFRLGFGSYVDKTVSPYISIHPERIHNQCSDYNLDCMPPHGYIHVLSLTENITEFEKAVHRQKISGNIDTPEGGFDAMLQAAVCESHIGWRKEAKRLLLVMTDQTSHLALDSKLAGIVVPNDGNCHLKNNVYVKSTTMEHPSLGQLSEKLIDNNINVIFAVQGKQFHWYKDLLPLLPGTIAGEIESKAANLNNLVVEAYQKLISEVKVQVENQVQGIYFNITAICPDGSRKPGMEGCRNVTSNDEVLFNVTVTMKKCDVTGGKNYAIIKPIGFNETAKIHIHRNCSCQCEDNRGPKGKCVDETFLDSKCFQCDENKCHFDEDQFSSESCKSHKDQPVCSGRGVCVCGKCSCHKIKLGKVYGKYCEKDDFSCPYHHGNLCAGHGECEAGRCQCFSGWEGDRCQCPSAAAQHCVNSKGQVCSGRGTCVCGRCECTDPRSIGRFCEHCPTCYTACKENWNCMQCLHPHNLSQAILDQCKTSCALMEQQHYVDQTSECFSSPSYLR

integrin αvβ6 [2] = target: T2, integrin αvβ6 (human, UniProt P06756)
T2 chain 1: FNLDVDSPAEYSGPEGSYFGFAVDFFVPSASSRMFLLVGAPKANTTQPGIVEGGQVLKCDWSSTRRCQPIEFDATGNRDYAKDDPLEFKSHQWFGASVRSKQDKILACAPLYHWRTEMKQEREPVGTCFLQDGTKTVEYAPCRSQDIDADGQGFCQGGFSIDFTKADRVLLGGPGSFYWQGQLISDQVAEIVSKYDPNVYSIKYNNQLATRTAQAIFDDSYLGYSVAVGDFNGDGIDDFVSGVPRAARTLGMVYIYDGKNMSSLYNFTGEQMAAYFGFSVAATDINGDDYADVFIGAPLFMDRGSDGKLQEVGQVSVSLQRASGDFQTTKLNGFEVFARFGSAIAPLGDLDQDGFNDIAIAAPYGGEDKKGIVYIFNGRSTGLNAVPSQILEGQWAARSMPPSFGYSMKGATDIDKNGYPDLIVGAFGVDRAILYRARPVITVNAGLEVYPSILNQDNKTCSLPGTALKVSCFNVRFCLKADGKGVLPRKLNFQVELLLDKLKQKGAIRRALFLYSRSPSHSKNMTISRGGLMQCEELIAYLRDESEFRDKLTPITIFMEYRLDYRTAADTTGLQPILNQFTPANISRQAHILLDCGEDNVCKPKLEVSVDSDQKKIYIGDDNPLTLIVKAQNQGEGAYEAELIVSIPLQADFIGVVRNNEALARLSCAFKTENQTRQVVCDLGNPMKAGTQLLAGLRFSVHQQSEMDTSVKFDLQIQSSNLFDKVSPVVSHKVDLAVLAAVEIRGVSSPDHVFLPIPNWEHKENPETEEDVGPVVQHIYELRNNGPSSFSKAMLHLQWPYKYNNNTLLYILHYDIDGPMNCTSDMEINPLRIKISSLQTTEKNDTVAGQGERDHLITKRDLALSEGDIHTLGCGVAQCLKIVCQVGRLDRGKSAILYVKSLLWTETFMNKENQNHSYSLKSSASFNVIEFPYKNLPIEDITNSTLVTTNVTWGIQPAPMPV
T2 chain 2: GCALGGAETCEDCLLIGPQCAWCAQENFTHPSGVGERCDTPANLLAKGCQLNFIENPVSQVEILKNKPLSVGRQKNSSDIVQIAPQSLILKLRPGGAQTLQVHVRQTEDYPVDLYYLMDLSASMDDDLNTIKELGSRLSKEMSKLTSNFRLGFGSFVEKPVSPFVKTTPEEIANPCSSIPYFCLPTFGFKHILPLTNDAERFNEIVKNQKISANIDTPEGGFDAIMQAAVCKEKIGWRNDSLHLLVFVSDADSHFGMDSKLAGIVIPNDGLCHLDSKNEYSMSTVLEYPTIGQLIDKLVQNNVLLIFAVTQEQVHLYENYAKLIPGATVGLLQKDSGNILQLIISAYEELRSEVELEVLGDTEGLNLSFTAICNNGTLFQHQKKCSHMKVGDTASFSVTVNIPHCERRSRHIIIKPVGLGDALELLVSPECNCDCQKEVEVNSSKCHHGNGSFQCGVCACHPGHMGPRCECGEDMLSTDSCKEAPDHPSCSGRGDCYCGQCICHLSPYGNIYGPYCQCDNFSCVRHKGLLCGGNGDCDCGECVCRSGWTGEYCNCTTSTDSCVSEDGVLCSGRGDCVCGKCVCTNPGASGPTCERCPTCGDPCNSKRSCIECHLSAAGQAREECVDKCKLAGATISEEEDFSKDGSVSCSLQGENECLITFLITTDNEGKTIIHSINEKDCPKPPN

integrin αvβ8 [3] = target: T1, integrin αvβ8
integrin αvβ6 [4] = target: T2, integrin αvβ6
integrin αvβ3 = target: T3, integrin αvβ3 (human, UniProt P06756)
T3 chain 1: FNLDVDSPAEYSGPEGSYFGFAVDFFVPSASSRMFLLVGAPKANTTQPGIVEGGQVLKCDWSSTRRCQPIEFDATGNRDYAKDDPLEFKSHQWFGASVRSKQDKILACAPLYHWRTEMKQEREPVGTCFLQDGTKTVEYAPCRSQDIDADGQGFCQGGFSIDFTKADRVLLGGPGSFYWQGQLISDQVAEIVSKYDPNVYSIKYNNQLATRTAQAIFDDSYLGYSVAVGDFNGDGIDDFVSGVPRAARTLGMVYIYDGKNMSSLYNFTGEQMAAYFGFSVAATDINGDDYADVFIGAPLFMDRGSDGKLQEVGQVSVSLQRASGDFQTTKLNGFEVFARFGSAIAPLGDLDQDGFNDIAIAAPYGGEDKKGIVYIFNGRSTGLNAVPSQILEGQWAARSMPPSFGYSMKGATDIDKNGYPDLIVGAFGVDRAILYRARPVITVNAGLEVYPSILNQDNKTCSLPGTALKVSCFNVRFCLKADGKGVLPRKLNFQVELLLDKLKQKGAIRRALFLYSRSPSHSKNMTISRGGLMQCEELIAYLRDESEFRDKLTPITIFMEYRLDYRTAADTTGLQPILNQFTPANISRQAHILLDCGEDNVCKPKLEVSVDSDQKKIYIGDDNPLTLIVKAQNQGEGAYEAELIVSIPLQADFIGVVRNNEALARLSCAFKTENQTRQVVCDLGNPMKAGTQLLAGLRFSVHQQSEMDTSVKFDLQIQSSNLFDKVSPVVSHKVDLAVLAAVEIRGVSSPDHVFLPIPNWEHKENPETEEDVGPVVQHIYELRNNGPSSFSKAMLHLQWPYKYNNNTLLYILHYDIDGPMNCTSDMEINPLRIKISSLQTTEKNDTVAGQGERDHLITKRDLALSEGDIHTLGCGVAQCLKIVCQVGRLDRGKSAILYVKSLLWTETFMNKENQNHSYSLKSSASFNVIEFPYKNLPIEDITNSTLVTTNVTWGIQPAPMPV
T3 chain 2: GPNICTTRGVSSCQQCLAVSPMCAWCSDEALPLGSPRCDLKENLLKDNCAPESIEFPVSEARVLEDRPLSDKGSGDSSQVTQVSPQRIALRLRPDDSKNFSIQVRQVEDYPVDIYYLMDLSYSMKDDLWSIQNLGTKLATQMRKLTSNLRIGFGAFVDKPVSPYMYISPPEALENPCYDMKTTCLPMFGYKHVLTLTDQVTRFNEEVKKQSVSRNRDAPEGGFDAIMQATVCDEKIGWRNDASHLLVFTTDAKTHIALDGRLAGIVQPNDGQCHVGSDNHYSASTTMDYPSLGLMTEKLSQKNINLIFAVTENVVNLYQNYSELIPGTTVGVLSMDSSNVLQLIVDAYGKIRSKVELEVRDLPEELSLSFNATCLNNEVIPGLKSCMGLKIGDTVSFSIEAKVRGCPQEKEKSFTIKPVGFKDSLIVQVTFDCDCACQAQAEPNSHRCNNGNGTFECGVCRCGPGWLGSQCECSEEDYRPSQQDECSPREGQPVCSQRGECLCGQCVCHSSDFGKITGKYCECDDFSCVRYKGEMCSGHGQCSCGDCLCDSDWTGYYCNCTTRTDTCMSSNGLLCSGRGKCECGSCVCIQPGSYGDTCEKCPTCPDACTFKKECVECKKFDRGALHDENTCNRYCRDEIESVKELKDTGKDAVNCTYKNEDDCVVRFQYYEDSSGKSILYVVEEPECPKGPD

Row | Binder | IC50 (integrin αvβ8 [1]) | IC50 (integrin αvβ6 [2]) | IC50 (integrin αvβ8 [3]) | IC50 (integrin αvβ6 [4]) | IC50 (integrin αvβ3)
1 | cyclo(RGDL[dP][Pro‑4‑NH‑hexyne]GL) (reading uncertain) [Compound 12 (Table 1)] | 8.8 nM | 217 nM | – | – | –
2 | cyclo(RGD[dF]K) (also: Ahx-BDPFL conjugate, attachment site not given here) [Compound 13 (Table 3) c(RGDfK)-Ahx-BDPFL] | – | – | 258 nM | 7.8 nM | 2.55 nM
3 | cyclo(RGDL[dP][NMeK]([Ahx-Ahx-BDPFL])GL) [Compound 9c (9-Ahx-Ahx-BDPFL)] | – | – | 1.52 nM | 64 nM | 500 nM
4 | cyclo(RGDL[dP]PAL) (SMILES CC(C)C[C@@H]1NC(=O)[C@H](C)NC(=O)[C@@H]2CCCN2C(=O)[C@H]2CCCN2C(=O)[C@H](CC(C)C)NC(=O)[C@H](CC(=O)O)NC(=O)CNC(=O)[C@H](CCCNC(=N)N)NC1=O) [Compound 1] | 1.4 nM | 84 nM | – | – | –
5 | cyclo(RGDL[dP]PSL) (SMILES CC(C)C[C@@H]1NC(=O)[C@H](CO)NC(=O)[C@@H]2CCCN2C(=O)[C@H]2CCCN2C(=O)[C@H](CC(C)C)NC(=O)[C@H](CC(=O)O)NC(=O)CNC(=O)[C@H](CCCNC(=N)N)NC1=O) [Compound 3] | 12.5 nM | 187 nM | – | – | –
6 | cyclo(RGDL[dP][N‑Me‑Lys‑pentyne]GL) [Compound 11 (Table 1)] | 1.7 nM | 41 nM | – | – | –
7 | cyclo(RGDL[dP]PAF) [Compound 13 (Table 1)] | 1.83 nM | 81 nM | – | – | –
8 | cyclo(RGDL[dP]PAA) (SMILES CC(C)C[C@@H]1NC(=O)[C@H](CC(=O)O)NC(=O)CNC(=O)[C@H](CCCNC(=N)N)NC(=O)[C@H](C)NC(=O)[C@H](C)NC(=O)[C@@H]2CCCN2C(=O)[C@H]2CCCN2C1=O) [Compound 10 (Table 1)] | 8.1 nM | 114 nM | – | – | –
9 | cyclo(RGDL[dP]PAH) (SMILES CC(C)C[C@@H]1NC(=O)[C@H](CC(=O)O)NC(=O)CNC(=O)[C@H](CCCNC(=N)N)NC(=O)[C@H](Cc2c[nH]cn2)NC(=O)[C@H](C)NC(=O)[C@@H]2CCCN2C(=O)[C@H]2CCCN2C1=O) [Compound 5] | 2.2 nM | 171 nM | – | – | –
10 | cyclo(GLRVDL[dP][NMeK]([Ahx-BDPFL])) [Compound 11 (Table 3) c(GLRVDLp(NMe)K)-Ahx-BDPFL] | – | – | 1120 nM | > 10000 nM | > 10000 nM
11 | cyclo(RGDL[dP]PAY) (SMILES CC(C)C[C@@H]1NC(=O)[C@H](CC(=O)O)NC(=O)CNC(=O)[C@H](CCCNC(=N)N)NC(=O)[C@H](Cc2ccc(O)cc2)NC(=O)[C@H](C)NC(=O)[C@@H]2CCCN2C(=O)[C@H]2CCCN2C1=O) [Compound 4] | 1.1 nM | 156 nM | – | – | –
12 | cyclo(RGDL[dP]PAL) (SMILES CC(C)C[C@@H]1NC(=O)[C@H](C)NC(=O)[C@@H]2CCCN2C(=O)[C@H]2CCCN2C(=O)[C@H](CC(C)C)NC(=O)[C@H](CC(=O)O)NC(=O)CNC(=O)[C@H](CCCNC(=N)N)NC1=O) [Compound 7] | 1.31 nM | 32 nM | – | – | –
13 | cyclo(RGDL[dNMeF]PAL) (SMILES CC(C)C[C@@H]1NC(=O)[C@H](C)NC(=O)[C@@H]2CCCN2C(=O)[C@@H](Cc2ccccc2)N(C)C(=O)[C@H](CC(C)C)NC(=O)[C@H](CC(=O)O)NC(=O)CNC(=O)[C@H](CCCNC(=N)N)NC1=O) [Compound 6] | 9.4 nM | 139 nM | – | – | –
